Measured values taken from US6653533, “Nucleic acids encoding proteins with pathogen resistance activity and plants transformed therewith” (Purdue Research Foundation).
Numbering of substitutions follows the chain as printed.

B1: wild type gln2 PR-box 2x (dsDNA)
DNA 1: CATAAGAGCCGCCACTAAAATAAGACCGATCAAATAAGAGCCGCCAT
DNA 2: ATGGCGGCTCTTATTTGATCGGTCTTATTTTAGTGGCGGCTCTTATG
B2: mutated PR-box 2x (dsDNA)
DNA 1: B1 DNA 1 with G8T, G11T, G40T, G43T
DNA 2: B1 DNA 2 with C5A, C8A, C37A, C40A

How the values were obtained:
Pti5 [1] = target: T1, Pti5 (Lycopersicon esculentum, UniProt O04681 SEQ:1-161); assay: EMSA; 4 fmol probe, poly(dA-dT), 25 mM Hepes pH 7.5, 40 mM KCl, room temperature; conditions: tags: GST fusion (pGEX), E. coli PR745; label: 32P end label
Protocol: (§1) The wild type gln2 PR-box 2× ([…] […])(SEQ ID NO:17) and mutated PR-box 2× ([…] […]) (SEQ ID NO:18) were end-labeled by 32P as described by Ausubel, F. M., Brent, R., Kingston, R. E., Moore, D. D., Seidman, J. G., Smith, J. A., and Struhl, K. (1994). Current Protocols in Molecular Biology. (New York: Greene Publish Associates/John Wiley and Sons). Four fmol of probe was mixed with each of the purified GST-fusion proteins in a buffer containing 2 μg poly(dA-dT) (dA-dT), 25 mM Hepes (PH7.5), 40 mM KCl, 0.1 mM EDTA, 10% glycerol, and 1 mM DTT, incubated at room temperature for 15 minutes, and electrophoresed on a 4% polyacrylamide gel in 0.25×TBE buffer. Ohme-Takagi, M. and Shinshi, H. (1995). Ethylene-inducible DNA-binding proteins that interact with an ethylene-responsive element. Plant Cell 7, 173–182. The gel was subsequently dried and exposed to x-ray film. […] In contrast to GST-Pti5 and GST-Pti6, neither GST-Pti1 nor GST itself bound to the PR-box.

Pti6 [2] = target: T2, Pti6 (Lycopersicon esculentum, UniProt O04682 SEQ:1-248); assay: as above; conditions: tags: GST fusion (pGEX), E. coli PR745; label: 32P end label
Protocol: as §1

Pti1 = target: T3, Pti1 (Lycopersicon esculentum, UniProt Q41328 Q41328:1-354); assay: EMSA; negative control protein; conditions: tags: GST fusion; label: 32P end label
T3 sequence: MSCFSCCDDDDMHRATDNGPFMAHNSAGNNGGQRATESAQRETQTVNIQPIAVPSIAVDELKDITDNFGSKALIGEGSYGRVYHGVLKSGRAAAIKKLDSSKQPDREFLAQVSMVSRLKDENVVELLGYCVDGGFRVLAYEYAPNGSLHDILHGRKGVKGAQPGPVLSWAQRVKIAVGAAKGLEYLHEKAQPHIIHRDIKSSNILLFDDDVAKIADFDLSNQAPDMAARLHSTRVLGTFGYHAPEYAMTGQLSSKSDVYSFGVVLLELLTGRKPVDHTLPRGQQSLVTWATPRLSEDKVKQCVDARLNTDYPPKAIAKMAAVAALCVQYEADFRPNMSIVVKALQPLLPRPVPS
Protocol: as §1

GST = GST (UniProt P08515 P08515:1-218); assay: EMSA; negative control protein; conditions: tags: GST alone; label: 32P end label
Protocol: as §1

Pti5 [3] = target: T1, Pti5; assay: EMSA; no binding detected; same buffer; conditions: tags: GST fusion (pGEX), E. coli PR745; label: 32P end label
Protocol: as §1

Pti6 [4] = target: T2, Pti6; assay: EMSA; no binding detected; same buffer; conditions: tags: GST fusion (pGEX), E. coli PR745; label: 32P end label
Protocol: as §1

T1 sequence (O04681 other isoform, or with tags, fused parts or gaps): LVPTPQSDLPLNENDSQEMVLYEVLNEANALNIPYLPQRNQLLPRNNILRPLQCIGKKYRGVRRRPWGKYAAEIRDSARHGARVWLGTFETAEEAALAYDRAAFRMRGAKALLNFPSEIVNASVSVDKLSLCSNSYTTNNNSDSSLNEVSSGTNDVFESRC
T2 sequence (O04682 whole entry, the tested form may be a part): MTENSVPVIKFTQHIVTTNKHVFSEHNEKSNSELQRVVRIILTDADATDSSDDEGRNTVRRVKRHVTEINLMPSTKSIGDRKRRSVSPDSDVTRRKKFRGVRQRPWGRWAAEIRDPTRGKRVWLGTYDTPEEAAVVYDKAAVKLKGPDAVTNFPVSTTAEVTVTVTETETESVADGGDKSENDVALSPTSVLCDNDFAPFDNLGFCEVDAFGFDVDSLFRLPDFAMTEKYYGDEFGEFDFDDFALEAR
Sequence of GST (P08515 whole entry, one chain of several): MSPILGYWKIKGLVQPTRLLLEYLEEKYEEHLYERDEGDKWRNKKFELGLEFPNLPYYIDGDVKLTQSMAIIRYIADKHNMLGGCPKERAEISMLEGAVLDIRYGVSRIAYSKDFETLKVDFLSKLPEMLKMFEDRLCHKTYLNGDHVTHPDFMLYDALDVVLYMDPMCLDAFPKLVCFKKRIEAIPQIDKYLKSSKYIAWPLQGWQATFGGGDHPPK

Binder	binding result (Pti5 [1])	binding result (Pti6 [2])	binding result (Pti1)	binding result (GST)	binding result (Pti5 [3])	binding result (Pti6 [4])
B1	binds	binds	no binding	no binding	–	–
B2	–	–	–	–	no binding	no binding
